Patent US20220289854A1

Target: mouse CX3CR1 (mouse)
Experiment: flow cytometry titration on Jurkat cells transfected with mCX3CR1; goat anti-mIgG PE

EC50: 0.102 µg/mL
B1: 455.1C11 anti-mouse CX3CR1 monoclonal antibody (antibody, V domains shown)
VH: QVQLVETGGGLVRPGNSLKLSCVTSGFTFSNYRMHWLRQFPGKRLEWIAVIAFKSDKFGANYAESVKGRFAISRDDSKNSVYLEMSRLREEDTATYFCSRDGNGPFDYWGQGTTLTVSS
VL: DIVMSQSPSSLTVSVGEKVTMSCKSSQSLLYSGNQKSYLAWYQQKPGQSPRLLIYWASTRESGVPDRFTGSGSGTDFTLTISGVKAEDLAVYYCQRYYGYPRTFGGGTKLEIK
